The source of these data is patent US20250215092A1 (ZHEJIANG NANOMAB TECHNOLOGY CENTER, published 2025).

The term Kd denotes the constant that tells how readily two partners part at equilibrium. A higher Kd goes with weaker binding. By koff is commonly meant the first-order rate constant of dissociation. Read a low koff as a long-lived complex. For orientation: kon means the second-order rate constant of association. Low readings indicate slower complex formation, high ones faster complex formation.

Positions count from the first letter of the chain named.

B1: E008.1 (VHH)
VHH: EVQLVESGGGLVQPGGSLRLSCAASGLPLLDYAIGWFRQAPGKEREAVSAISISEGSTYYTDSVRGRFTISRDNSKNTVYLQMNSLRAEDTAVYYCAADKTDIGFWLLVGGAGGGEVRYEYWGQGTQVTVSS
notes: Humanized VHH; also called humanized variant of E008
B2: E008.4 (VHH)
VHH: B1 VHH with S75N
notes: as for B1
B3: E008.10 (VHH)
VHH: B1 VHH with A24S, T78K, Q82R
notes: as for B1
B4: E008.5 (VHH)
VHH: B1 VHH with T78K
notes: as for B1
B5: E008.9 (VHH)
VHH: B1 VHH with R45L, S75N, T78K
notes: as for B1
B6: E008.6 (VHH)
VHH: B1 VHH with S75N, T78K
notes: as for B1
B7: E008.2 (VHH)
VHH: B1 VHH with T78K, V79L
notes: as for B1
B8: E008.3 (VHH)
VHH: B1 VHH with Q82R
notes: as for B1
B9: E005.1 (VHH)
VHH: QVQLVESGGGLVKPGGSLRLSCAASGFAFSDYTMRWHRQAAGKELELVSYITSAGDIIKYANSVRGRFTISRDNAKNTLYLQMNSLRAEDTAVYRCNALVSASVRASDYWGQGTLVTVSS
notes: Humanized VHH; also called humanized variant of E005
B10: E005.7 (VHH)
VHH: B9 VHH with A41P, S49A, T78S
notes: as for B9
B11: E005.5 (VHH)
VHH: B9 VHH with A41P, S49A
notes: as for B9
B12: E005.4 (VHH)
VHH: B9 VHH with A41P, T78S
notes: as for B9
B13: E005.3 (VHH)
VHH: B9 VHH with S49A
notes: as for B9
B14: E005.6 (VHH)
VHH: B9 VHH with S49A, T52S
notes: as for B9
B15: E005.8 (VHH)
VHH: B9 VHH with A23E, S49A
notes: as for B9
B16: E005.2 (VHH)
VHH: B9 VHH with S49A, T78S
notes: as for B9
B17: E006.1 (VHH)
VHH: EVQLVESGGGLVQPGGSLRLSCAASGFTFDTYTTSWERQAPGKEREMVAVLATTGGKPYYVESVKGRFTISRDNSKNTVYLQMNSLRAEDTAVYYCKATSRSPVNPHNYSGQGTLVTVSS
notes: Humanized VHH; also called humanized variant of E006
B18: E006.3 (VHH)
VHH: B17 VHH with N74A, K76E
notes: as for B17
B19: E006.5 (VHH)
VHH: B17 VHH with N74A, K76E, T78A, S85N
notes: as for B17
B20: E006.8 (VHH)
VHH: B17 VHH with A23T, A49S, N74A, K76E, T78A, Y80T
notes: as for B17
B21: E006.7 (VHH)
VHH: B17 VHH with A49S, N74A, K76E, T78A
notes: as for B17
B22: E006.2 (VHH)
VHH: B17 VHH with N74A
notes: as for B17
B23: E006.4 (VHH)
VHH: B17 VHH with N74A, K76E, T78A
notes: as for B17
B24: E006.6 (VHH)
VHH: B17 VHH with N74A, K76E, T78A, Y80T, S85N
notes: as for B17
B25: E002.1 (VHH)
VHH: EVQLVESGGGLVQPGGSLRLSCAASGFTFSDYAVSWYRQAPGKEREFVSRITGTGETSRYEDSVKGRFTISRDNSKNTAYLQMNSLRAEDTAVYYCSIYHPPRDYWGQGTQVTVSS
notes: Humanized VHH; also called humanized variant of E002
B26: E002.2 (VHH)
VHH: B25 VHH with S75V
notes: as for B25
B27: E002.7 (VHH)
VHH: B25 VHH with S49A, T69A, S75V
notes: as for B25
B28: E002.5 (VHH)
VHH: B25 VHH with S49A, S75V
notes: as for B25
B29: E002.6 (VHH)
VHH: B25 VHH with S49A, T69A
notes: as for B25
B30: E002.4 (VHH)
VHH: B25 VHH with S49A
notes: as for B25

The target of this assay is T1, human EGFR.His antigen (Acro, Cat #EGR-H522a) (human, UniProt P00533 25-645).
T1 construct: extracellular domain; Bought protein; also called EGFR his tag protein; full-length EGFR extracellular domain protein; not shown: His tag
The assay is described as follows: SPR, human EGFR.His. For orientation: SPR reads the build-up and loss of mass on a sensor chip optically.
As to B1, the Kd was 18 nM, the koff worked out at 0.0087 s⁻¹ and the kon stood at 480000 M⁻¹ s⁻¹.
In turn, B2 registered a Kd of 21 nM, a dissociation rate constant (koff) of 0.0093 s⁻¹ and an on-rate (kon) of 450000 M⁻¹ s⁻¹.
In the same order, the values of B3 are 82 nM, 0.029 s⁻¹ and 360000 M⁻¹ s⁻¹.
The corresponding values for B4 are 24 nM, 0.012 s⁻¹ and 510000 M⁻¹ s⁻¹.
In the same order, the values of B5 are 25 nM, 0.012 s⁻¹ and 490000 M⁻¹ s⁻¹.
B6: the Kd was found to be 32 nM, the koff was determined as 0.013 s⁻¹ and the kon was 430000 M⁻¹ s⁻¹.
In the same order, the values of B7 are 40 nM, 0.021 s⁻¹ and 540000 M⁻¹ s⁻¹.
In the same order, the values of B8 are 5.8 nM, 0.028 s⁻¹ and 4.9e+06 M⁻¹ s⁻¹.
The corresponding values for B9 are 3.3 nM, 3.5e-05 s⁻¹ and 11000 M⁻¹ s⁻¹.
For B10, the dissociation constant (Kd) was 0.71 nM, the off-rate (koff) turned out to be 2.5e-06 s⁻¹ and the on-rate (kon) is 3500 M⁻¹ s⁻¹.
In the same order, the values of B11 are 0.74 nM, 1.1e-05 s⁻¹ and 15000 M⁻¹ s⁻¹.
The corresponding values for B12 are 4.8 nM, 9.6e-06 s⁻¹ and 2000 M⁻¹ s⁻¹.
On to B13, for which binding was put at a Kd of 2.7 nM, the koff came to 1.7e-05 s⁻¹ and the kon is 6100 M⁻¹ s⁻¹.
The corresponding values for B14 are 2.5 nM, 4.1e-05 s⁻¹ and 16000 M⁻¹ s⁻¹.
Regarding B15, the Kd was 2.1 nM, the dissociation rate constant (koff) amounted to 2.7e-05 s⁻¹ and the kon was determined as 13000 M⁻¹ s⁻¹.
The molecule B16 returned a Kd of 1.2 nM, a koff of 2.1e-05 s⁻¹ and a kon of 18000 M⁻¹ s⁻¹.
In turn, B17 came in with a dissociation constant Kd of 39 nM, a koff of 0.00079 s⁻¹ and an on-rate constant (kon) of 20000 M⁻¹ s⁻¹.
The corresponding values for B18 are 18 nM, 0.0004 s⁻¹ and 22000 M⁻¹ s⁻¹.
In the same order, the values of B19 are 13 nM, 0.00031 s⁻¹ and 24000 M⁻¹ s⁻¹.
In the same order, the values of B20 are 15 nM, 0.0004 s⁻¹ and 27000 M⁻¹ s⁻¹.
B21: the dissociation constant Kd worked out at 14 nM, the koff was 0.00033 s⁻¹ and the kon stood at 24000 M⁻¹ s⁻¹.
B22 had a Kd of 41 nM, an off-rate (koff) of 0.00072 s⁻¹ and a kon of 17000 M⁻¹ s⁻¹.
For B23, the Kd was 13 nM, the off-rate constant (koff) amounted to 0.00032 s⁻¹ and the kon was found to be 25000 M⁻¹ s⁻¹.
In the same order, the values of B24 are 11 nM, 0.00032 s⁻¹ and 29000 M⁻¹ s⁻¹.
The corresponding values for B25 are 5 nM, 0.00039 s⁻¹ and 78000 M⁻¹ s⁻¹.
In turn, B26 came in with a Kd of 5.1 nM, a koff of 0.00068 s⁻¹ and a kon of 130000 M⁻¹ s⁻¹.
The molecule B27 returned a Kd of 11 nM, an off-rate constant (koff) of 0.00046 s⁻¹ and an association rate constant (kon) of 40000 M⁻¹ s⁻¹.
The corresponding values for B28 are 13 nM, 0.00055 s⁻¹ and 43000 M⁻¹ s⁻¹.
The molecule B29 registered a Kd of 9.4 nM, a koff of 0.00038 s⁻¹ and a kon of 40000 M⁻¹ s⁻¹.
The corresponding values for B30 are 11 nM, 0.00045 s⁻¹ and 43000 M⁻¹ s⁻¹.
